Source: patent US20240327535A1 (EISAI R AND D MANAGEMENT, published 2024)
Read-outs that look alike come from different tables or passages of the source.

Legend:
Assay in all cases: Octet BLI; Fab 200 nM
[1] = target: T1, extracellular domain of human BCMA (human, UniProt Q02223 1-54)
T1 construct: amine-linked to Octet AR2G tips; also called hsBCMA; BCMA (human)
T1 sequence: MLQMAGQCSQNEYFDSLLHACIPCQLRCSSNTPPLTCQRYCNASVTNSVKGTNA

[2] = target: T2, extracellular domain of rhesus monkey BCMA (rhesus monkey, UniProt F7FFA0 1-53)
T2 construct: extracellular domain; also called RhBCMA
T2 sequence (F7FFA0 entry or part of it): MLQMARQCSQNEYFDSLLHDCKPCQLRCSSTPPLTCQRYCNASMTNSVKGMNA

[3] = target: T1, extracellular domain of human BCMA; remark: listed apart in the source

Binder	Kd [1] [nM]	Kd [2] [nM]	Kd [3] [nM]
AB200-R1H32-R2Vk1 (Fab, V domains shown) VH: QVQLVQSGAEVKKPGSSVKVSCKASGGTFSNYWMHWVRQAPGQGLEWMGATYRSHSDTYYNQKFKSRVTITADKSTSTAYMELSSLRSEDTAVYYCARGAIYHGYDVIDNWGQGTLVTVSS VL: DIQMTQSPSSLSASVGDRVTITCRASQSISSYLNWYQQKPGKAPKLLIYAASSLQSGVPSRFSGSGSGTDFTLTISSLQPEDFATYYCQQFRKLPWSFGQGTKLEIKR	1.27	5.42	
AB200-R1H26-R2Vk16 (Fab, V domains shown) VH: QVQLVQSGAEVKKPGSSVKVSCKASGGSFSNYWMHWVRQAPGQGLEWMGATYRIHSDTFYNQKFKGRVTITADKSTSTAYMELSSLRSEDTAVYYCARGAIYHGYDVLDNWGQGTLVTVSS VL: DIQMTQSPSSLSASVGDRVTITCRASQSISSYINWYQQKPGKAPKLLIYAASSLQSGVPSRFSGSGSGTDFTLTISSLQPEDFATYYCQQFRRLPWTFGQGTKLEIKR			2.09
AB200-R1H26-R2Vk18 (Fab, V domains shown) VH: QVQLVQSGAEVKKPGSSVKVSCKASGGSFSNYWMHWVRQAPGQGLEWMGATYRIHSDTFYNQKFKGRVTITADKSTSTAYMELSSLRSEDTAVYYCARGAIYHGYDVLDNWGQGTLVTVSS VL: DIQMTQSPSSLSASVGDRVTITCRASQSISSYINWYQQKPGKAPKLLIYAASSLQSGVPSRFSGSGSGTDFTLTISSLQPEDFATYYCQQFRKIPWTFGQGTKLEIKR			3.44
AB200-R1H26-R2Vk15 (Fab, V domains shown) VH: QVQLVQSGAEVKKPGSSVKVSCKASGGSFSNYWMHWVRQAPGQGLEWMGATYRIHSDTFYNQKFKGRVTITADKSTSTAYMELSSLRSEDTAVYYCARGAIYHGYDVLDNWGQGTLVTVSS VL: DIQMTQSPSSLSASVGDRVTITCRASQSISSYINWYQQKPGKAPKLLIYAASSLQSGVPSRFSGSGSGTDFTLTISSLQPEDFATYYCQQYRRIPWTFGQGTKLEIKR			3.27
AB200-R1H26-R2Vk17 (Fab, V domains shown) VH: QVQLVQSGAEVKKPGSSVKVSCKASGGSFSNYWMHWVRQAPGQGLEWMGATYRIHSDTFYNQKFKGRVTITADKSTSTAYMELSSLRSEDTAVYYCARGAIYHGYDVLDNWGQGTLVTVSS VL: DIQMTQSPSSLSASVGDRVTITCRASQSISSYINWYQQKPGKAPKLLIYAASSLQSGVPSRFSGSGSGTDFTLTISSLQPEDFATYYCQQYRKIPWSFGQGTKLEIKR			3.59
AB200-R1H32-R2Vk11 (Fab, V domains shown) VH: QVQLVQSGAEVKKPGSSVKVSCKASGGTFSNYWMHWVRQAPGQGLEWMGATYRSHSDTYYNQKFKSRVTITADKSTSTAYMELSSLRSEDTAVYYCARGAIYHGYDVIDNWGQGTLVTVSS VL: DIQMTQSPSSLSASVGDRVTITCRASQSISSYLNWYQQKPGKAPKLLIYAASSLQSGVPSRFSGSGSGTDFTLTISSLQPEDFATYYCQQFRRLPWTFGQGTKLEIKR	0.936	4.1	
AB200-R1H32-R2Vk41 (Fab, V domains shown) VH: QVQLVQSGAEVKKPGSSVKVSCKASGGTFSNYWMHWVRQAPGQGLEWMGATYRSHSDTYYNQKFKSRVTITADKSTSTAYMELSSLRSEDTAVYYCARGAIYHGYDVIDNWGQGTLVTVSS VL: DIQMTQSPSSLSASVGDRVTITCRASQSISSYINWYQQKPGKAPKLLIYATSNIQSGVPSRFSGSGSGTDFTLTISSLQPEDFATYYCQQFRRLPWTFGQGTKLEIKR	1.19	4.26	
AB200-R1H32-R2Vk31 (Fab, V domains shown) VH: QVQLVQSGAEVKKPGSSVKVSCKASGGTFSNYWMHWVRQAPGQGLEWMGATYRSHSDTYYNQKFKSRVTITADKSTSTAYMELSSLRSEDTAVYYCARGAIYHGYDVIDNWGQGTLVTVSS VL: DIQMTQSPSSLSASVGDRVTITCRASQSISSYLNWYQQKPGKAPKLLIYATSNLQIGVPSRFSGSGSGTDFTLTISSLQPEDFATYYCQQFRRLPWTFGQGTKLEIKR	0.665	2.82	
AB200-R1H32-R2Vk39 (Fab, V domains shown) VH: QVQLVQSGAEVKKPGSSVKVSCKASGGTFSNYWMHWVRQAPGQGLEWMGATYRSHSDTYYNQKFKSRVTITADKSTSTAYMELSSLRSEDTAVYYCARGAIYHGYDVIDNWGQGTLVTVSS VL: DIQMTQSPSSLSASVGDRVTITCRASQSISSYINWYQQKPGKAPKLLIYATSNIQSGVPSRFSGSGSGTDFTLTISSLQPEDFATYYCQQYRRLPWSFGQGTKLEIKR	1.06	4.76	
AB200-R1H32-R2Vk27 (Fab, V domains shown) VH: QVQLVQSGAEVKKPGSSVKVSCKASGGTFSNYWMHWVRQAPGQGLEWMGATYRSHSDTYYNQKFKSRVTITADKSTSTAYMELSSLRSEDTAVYYCARGAIYHGYDVIDNWGQGTLVTVSS VL: DIQMTQSPSSLSASVGDRVTITCRASQSISSYLNWYQQKPGKAPKLLIYATSNIQSGVPSRFSGSGSGTDFTLTISSLQPEDFATYYCQQYRKIPWSFGQGTKLEIKR	1.21	6.9	
AB200-R1H32-R2Vk3 (Fab, V domains shown) VH: QVQLVQSGAEVKKPGSSVKVSCKASGGTFSNYWMHWVRQAPGQGLEWMGATYRSHSDTYYNQKFKSRVTITADKSTSTAYMELSSLRSEDTAVYYCARGAIYHGYDVIDNWGQGTLVTVSS VL: DIQMTQSPSSLSASVGDRVTITCRASQSISSYLNWYQQKPGKAPKLLIYATSNLQSGVPSRFSGSGSGTDFTLTISSLQPEDFATYYCQQFRKLPWSFGQGTKLEIKR	1.01	4.38	
AB200-R1H32-R2Vk21 (Fab, V domains shown) VH: QVQLVQSGAEVKKPGSSVKVSCKASGGTFSNYWMHWVRQAPGQGLEWMGATYRSHSDTYYNQKFKSRVTITADKSTSTAYMELSSLRSEDTAVYYCARGAIYHGYDVIDNWGQGTLVTVSS VL: DIQMTQSPSSLSASVGDRVTITCRASQSISSYLNWYQQKPGKAPKLLIYATSNLQSGVPSRFSGSGSGTDFTLTISSLQPEDFATYYCQQFRRLPWTFGQGTKLEIKR	0.8	3.31	
AB200-R1H32-R2Vk24 (Fab, V domains shown) VH: QVQLVQSGAEVKKPGSSVKVSCKASGGTFSNYWMHWVRQAPGQGLEWMGATYRSHSDTYYNQKFKSRVTITADKSTSTAYMELSSLRSEDTAVYYCARGAIYHGYDVIDNWGQGTLVTVSS VL: DIQMTQSPSSLSASVGDRVTITCRASQSISSYLNWYQQKPGKAPKLLIYATSNIQSGVPSRFSGSGSGTDFTLTISSLQPEDFATYYCQQYRRLPWSFGQGTKLEIKR	1.05	4.89	
AB200-R1H32-R2Vk42 (Fab, V domains shown) VH: QVQLVQSGAEVKKPGSSVKVSCKASGGTFSNYWMHWVRQAPGQGLEWMGATYRSHSDTYYNQKFKSRVTITADKSTSTAYMELSSLRSEDTAVYYCARGAIYHGYDVIDNWGQGTLVTVSS VL: DIQMTQSPSSLSASVGDRVTITCRASQSISSYINWYQQKPGKAPKLLIYATSNIQSGVPSRFSGSGSGTDFTLTISSLQPEDFATYYCQQYRKIPWSFGQGTKLEIKR	1.04	5.93	
AB200-R1H32-R2Vk36 (Fab, V domains shown) VH: QVQLVQSGAEVKKPGSSVKVSCKASGGTFSNYWMHWVRQAPGQGLEWMGATYRSHSDTYYNQKFKSRVTITADKSTSTAYMELSSLRSEDTAVYYCARGAIYHGYDVIDNWGQGTLVTVSS VL: DIQMTQSPSSLSASVGDRVTITCRASQSISSYINWYQQKPGKAPKLLIYATSNLQSGVPSRFSGSGSGTDFTLTISSLQPEDFATYYCQQFRRLPWTFGQGTKLEIKR	0.83	3.45	
AB200-R1H32-R2Vk12 (Fab, V domains shown) VH: QVQLVQSGAEVKKPGSSVKVSCKASGGTFSNYWMHWVRQAPGQGLEWMGATYRSHSDTYYNQKFKSRVTITADKSTSTAYMELSSLRSEDTAVYYCARGAIYHGYDVIDNWGQGTLVTVSS VL: DIQMTQSPSSLSASVGDRVTITCRASQSISSYLNWYQQKPGKAPKLLIYAASSLQSGVPSRFSGSGSGTDFTLTISSLQPEDFATYYCQQYRKIPWSFGQGTKLEIKR	1.53	9.12	
AB200-R1H32-R2Vk28 (Fab, V domains shown) VH: QVQLVQSGAEVKKPGSSVKVSCKASGGTFSNYWMHWVRQAPGQGLEWMGATYRSHSDTYYNQKFKSRVTITADKSTSTAYMELSSLRSEDTAVYYCARGAIYHGYDVIDNWGQGTLVTVSS VL: DIQMTQSPSSLSASVGDRVTITCRASQSISSYLNWYQQKPGKAPKLLIYATSNIQSGVPSRFSGSGSGTDFTLTISSLQPEDFATYYCQQFRKIPWTFGQGTKLEIKR	1.19	5.99	
AB200-R1H32-R2Vk13 (Fab, V domains shown) VH: QVQLVQSGAEVKKPGSSVKVSCKASGGTFSNYWMHWVRQAPGQGLEWMGATYRSHSDTYYNQKFKSRVTITADKSTSTAYMELSSLRSEDTAVYYCARGAIYHGYDVIDNWGQGTLVTVSS VL: DIQMTQSPSSLSASVGDRVTITCRASQSISSYLNWYQQKPGKAPKLLIYAASSLQSGVPSRFSGSGSGTDFTLTISSLQPEDFATYYCQQFRKIPWTFGQGTKLEIKR	2.2	6.59	
AB200-R1H32-R2Vk35 (Fab, V domains shown) VH: QVQLVQSGAEVKKPGSSVKVSCKASGGTFSNYWMHWVRQAPGQGLEWMGATYRSHSDTYYNQKFKSRVTITADKSTSTAYMELSSLRSEDTAVYYCARGAIYHGYDVIDNWGQGTLVTVSS VL: DIQMTQSPSSLSASVGDRVTITCRASQSISSYINWYQQKPGKAPKLLIYATSNLQSGVPSRFSGSGSGTDFTLTISSLQPEDFATYYCQQYRRIPWTFGQGTKLEIKR	0.843	4.13	
AB200-R1H32-R2Vk45 (Fab, V domains shown) VH: QVQLVQSGAEVKKPGSSVKVSCKASGGTFSNYWMHWVRQAPGQGLEWMGATYRSHSDTYYNQKFKSRVTITADKSTSTAYMELSSLRSEDTAVYYCARGAIYHGYDVIDNWGQGTLVTVSS VL: DIQMTQSPSSLSASVGDRVTITCRASQSISSYINWYQQKPGKAPKLLIYATSNLQIGVPSRFSGSGSGTDFTLTISSLQPEDFATYYCQQYRRIPWTFGQGTKLEIKR	0.714	3.33	
